Source: paper PMC12006300 (Nature Communications, 2025)

Biological target: T1, Recombinant human PDZD8 (1, 28–)—FLAG (human, UniProt Q8NEN9 1-1154, (1, 28–), ∆TM)
T1 sequence (looked up): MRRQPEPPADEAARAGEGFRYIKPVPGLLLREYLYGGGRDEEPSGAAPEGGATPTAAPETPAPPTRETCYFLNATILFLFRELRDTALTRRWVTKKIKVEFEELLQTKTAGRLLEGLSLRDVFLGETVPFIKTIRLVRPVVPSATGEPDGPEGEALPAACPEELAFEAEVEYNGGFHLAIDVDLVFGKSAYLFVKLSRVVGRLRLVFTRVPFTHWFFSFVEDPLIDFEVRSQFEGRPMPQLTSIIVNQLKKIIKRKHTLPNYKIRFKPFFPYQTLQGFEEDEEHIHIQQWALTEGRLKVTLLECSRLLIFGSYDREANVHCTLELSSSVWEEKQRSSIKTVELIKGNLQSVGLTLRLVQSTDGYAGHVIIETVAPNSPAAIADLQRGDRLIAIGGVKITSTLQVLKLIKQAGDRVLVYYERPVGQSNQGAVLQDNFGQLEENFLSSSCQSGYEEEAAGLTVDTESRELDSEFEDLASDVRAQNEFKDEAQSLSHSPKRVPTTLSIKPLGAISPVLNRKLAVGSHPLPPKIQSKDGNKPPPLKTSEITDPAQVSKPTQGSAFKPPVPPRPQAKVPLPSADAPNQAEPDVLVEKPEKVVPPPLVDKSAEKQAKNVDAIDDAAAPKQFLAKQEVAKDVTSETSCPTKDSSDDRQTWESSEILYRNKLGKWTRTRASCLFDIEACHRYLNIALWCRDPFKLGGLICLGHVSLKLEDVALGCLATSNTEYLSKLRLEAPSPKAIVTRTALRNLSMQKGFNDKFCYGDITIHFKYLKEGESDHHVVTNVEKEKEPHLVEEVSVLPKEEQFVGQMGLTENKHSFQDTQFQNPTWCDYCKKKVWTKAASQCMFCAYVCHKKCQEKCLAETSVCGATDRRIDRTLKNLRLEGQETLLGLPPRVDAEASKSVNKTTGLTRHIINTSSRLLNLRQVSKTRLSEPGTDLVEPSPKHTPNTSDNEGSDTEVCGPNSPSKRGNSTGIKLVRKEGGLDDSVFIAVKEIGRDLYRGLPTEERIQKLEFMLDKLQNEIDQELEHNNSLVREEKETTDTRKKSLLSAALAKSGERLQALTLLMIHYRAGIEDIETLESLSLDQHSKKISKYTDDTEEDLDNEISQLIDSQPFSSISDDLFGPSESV
Test: SPR

B1: Recombinant human FKBP8 (1–380)—Histag (domain or fragment, UniProt Q14318 1-380, looked up)
chain: MASCAEPSEPSAPLPAGVPPLEDFEVLDGVEDAEGEEEEEEEEEEEDDLSELPPLEDMGQPPAEEAEQPGALAREFLAAMEPEPAPAPAPEEWLDILGNGLLRKKTLVPGPPGSSRPVKGQVVTVHLQTSLENGTRVQEEPELVFTLGDCDVIQALDLSVPLMDVGETAMVTADSKYCYGPQGRSPYIPPHAALCLEVTLKTAVDGPDLEMLTGQERVALANRKRECGNAHYQRADFVLAANSYDLAIKAITSSAKVDMTFEEEAQLLQLKVKCLNNLAASQLKLDHYRAALRSCSLVLEHQPDNIKALFRKGKVLAQQGEYSEAIPILRAALKLEPSNKTIHAELSKLVKKHAAQRSTETALYRKMLGNPSRLPAKCPG
  Kd: 142 µM
